Experimental data reported in patent publication US8409825B2, “Method for high-level secretory production of protein” (National Institute of Advanced Industrial Science and …, priority 2007, dated 2013).
Where “and” joins values, the source holds several entries; their conditions need not be identical. Identical values can stand only once. Like-named read-outs stand apart in the source and are kept apart here.

Tests used:
[1] = tested on: S. cerevisiae ZUO1/YGR285C strain; settings: control strain
Experimental: The S. cerevisiae ZUO1/YGR285C strain was sowed in 5 ml of YPAD medium (YPD medium containing 0.04% adenine (Sigma)), and yeast cells resulting from overnight culture at 30° C. and 310 rpm were used.
ST medium (500 μl) (Yeast Nitrogen Base and Ammonium sulfate medium containing 2% glucose, 0.04% adenine, and 0.3M KCl and lacking uracil and leucine (Sigma)) was applied onto a 96-deep well plate (Greiner, 780271), the transformant was sowed with the use of a toothpick, the top of the plate was sealed with CO2-permeable plate sealers (Greiner, 676051), and culture was carried out at an agitation speed of 310 rpm, an amplitude of 50 mm, at 30° C. for 3 days. Control culture was carried out by applying 1 ml of YPAD medium to a 96-deep well plate (Greiner, 780271). […] The culture solution that had been cultured in ST medium was sowed to a final concentration of 5%, and the top of the plate was sealed with CO2-permeable plate sealers (Greiner, 676051). Thereafter, culture was carried out at an agitation speed of 310 rpm, an amplitude of 50 mm, at 30° C. for 3 days. The culture supernatant was prepared from the culture solution and it was designated as a sample containing an antibody secreted and produced by yeast. […]

[2] = tested on: O. minuta PMT4-deficient strain (ona98808 strain); settings: 0.25 μM 1c (final concentration), FIG. 26
Experimental: The antibody-producing strain was cultured in the following manner. With the use of 2× YP-P6-GG medium (the medium was prepared by dissolving 20 g of Difco yeast extract and 40 g of Bacto peptone in 900 ml of pure water, sterilizing the solution via steaming under pressure, and adding 100 ml of separately sterilized 10× phosphate buffer (pH 6.0) (1M KH2PO4, 0.15M (NH4)2SO4, 0.375N KOH), 10 ml of a separately sterilized 50% glucose solution, and 25 ml of separately sterilized 80% glycerine), 800 μl of 2× YP-P6-GG medium was introduced into a 96-deep well plate (Greiner, 780271), the strains were sowed with the use of a toothpick, and the top of the plate was sealed with CO2-permeable plate sealers (Greiner, 676051). […]
Yeast cells were removed from the culture product via centrifugation at 2,700×g and 4° C. for 5 minutes, and the resulting culture supernatant was designated as a sample of secreted antibody. The secreted and produced antibodies were subjected to quantitative assay via sandwich ELISA. […] After the protein was subjected to SDS-PAGE under reducing and non-reducing conditions, the separated protein was blotted to a PVDF membrane, and the antibody heavy chain and light chain were detected using Anti-human IgG (γ-chain specific) (Sigma, I-3382) and Goat anti human kappa b&f affinity purified (Bethyl, A-80-115A) as the primary antibodies. […]

[3] = tested on: antibody-producing yeast strain (ona02306 strain); settings: for amount of antibody production: control 0.8 mg/l, FIG. 5
Experimental: Control culture was carried out at an agitation speed of 310 rpm, an amplitude of 50 mm, at 30° C. for 2 days, 100 μl of 2× YP-P6-GG medium was added, and 100 μl of 2× YP-P6-GG medium was further added on day 3. In the case of culture involving single addition of a rhodanine-3-acetic acid derivative 1c, culture was carried out at an agitation speed of 310 rpm, an amplitude of 50 mm, at 30° C. for 2 days, 100 μl of 2× YP-P6-GG medium was added, and 100 μl of 2× YP-P6-GG medium containing 20 μM of 1c was further added on day 3. In the case of culture involving addition of a rhodanine-3-acetic acid derivative 1c twice, culture was carried out at an agitation speed of 310 rpm, an amplitude of 50 mm, at 30° C. for 2 days, 100 μl of 2× YP-P6-GG medium containing 20 μM of 1c was added, and 100 μl of 2× YP-P6-GG medium containing 20 μM of 1c was further added on day 3.
Yeast cells were removed from the culture product via centrifugation at 2,700×g and 4° C. for 5 minutes, and the resulting culture supernatant was designated as a sample of secreted antibody. The secreted and produced antibodies were subjected to quantitative assay via sandwich ELISA. TRAIL receptor proteins that were antigens of the anti-TRAIL receptor antibodies were adsorbed on a 96-well plate, the sample of secreted antibody was added, and detection was carried out using a peroxidase-labeled human IgG specific Fc antibody (Peroxidase-labeled affinity purified antibody to human IgG (Fc) (KPL, 04-10-20)) and the ABTS peroxidase substrate (KPL, 50-66-01).
Western blotting was carried out as follows. After the protein was subjected to SDS-PAGE under reducing and non-reducing conditions, the separated protein was blotted to a PVDF membrane, and the antibody heavy chain and the light chain were detected using Anti-human IgG (γ-chain specific) (Sigma, I-3382) and Goat anti human kappa b&f affinity purified (Bethyl, A-80-115A) as the primary antibodies. Peroxidase conjugated affinity purified anti-goat IgG (H&L) (Rabbit) (Rockland, #605-4313) was used as the secondary antibody. […]

M. lysodeikticus = assay: Bacteriolytic activity of secreted human lysozyme; type: biochemical; settings: Table 3; for Bacteriolytic activity: culture supernatant, clones 1 to 3, 10 minutes at room temperature, absorbance at 450 nm; for Specific activity: per total amount of protein in culture supernatant, clones 1 to 3
Text: The expression vector for the aMF secretory signal-fused hLyz gene, onaP21808, was introduced into the ona01206 strain into which no chaperone combination was introduced, a strain that constitutively expresses a combination of O. minuta-derived chaperone genes; i.e., OmPDI1, OmERO1, and OmKar2, (i.e., the ona44607 strain), and a strain that constitutively expresses a combination of human-derived chaperone genes; i.e., synthetic hPDI, synthetic hERO1-Lβ, and synthetic hGRP78, (i.e., the ona68908 strain). Three clones were arbitrarily selected from the resulting colonies and cultured.
Also, bacteriolytic activity was assayed in the following manner. Bacteria of M. lysodeikticus was used as a substrate, and it was suspended in 50 mM phosphate buffer to prepare a substrate solution with a concentration of 0.16 mg/ml. To 240 μl of this substrate solution, 10 μl of a culture supernatant (the secreted human lysozyme) was added, and the mixture was incubated at room temperature for 10 minutes. Thereafter, the absorbance at 450 nm was assayed. […] Thus, a unit of lysozyme activity was defined as the amount of an enzyme that is necessary for the absorbance at 450 nm to be lowered by 0.001 per minute. Also, the total amount of proteins in the culture supernatant was assayed using the DC protein assay kit II (Bio-Rad, 500-0112JA) using bovine serum albumin as the standard.

[4] = biological target: T1, human alpha-2,3-sialic acid transferase (ST3GalI) (Homo sapiens, UniProt Q11201); assay: Sialic acid transferase (ST3GalI) enzyme activity assay of crude enzyme solution, HPLC, core 1-pNP substrate; type: biochemical; settings: for Specific activity: Table 1, culture supernatant equivalent to 10 μU, EndoHf treated, Western blot signal intensity; for Activity: Table 2, culture supernatant, assayed with the elapse of time
T1 construct: The catalyst domain of the ST3GalI gene was first amplified via PCR; His6 (N); made in house; host or cells: Ogataea minuta TK10-1-2 derived strains (YT-2 to YT-7), with or without co-expressed O. minuta chaperones; culture supernatant used as crude enzyme
T1 sequence (Q11201 35-340 limits assumed): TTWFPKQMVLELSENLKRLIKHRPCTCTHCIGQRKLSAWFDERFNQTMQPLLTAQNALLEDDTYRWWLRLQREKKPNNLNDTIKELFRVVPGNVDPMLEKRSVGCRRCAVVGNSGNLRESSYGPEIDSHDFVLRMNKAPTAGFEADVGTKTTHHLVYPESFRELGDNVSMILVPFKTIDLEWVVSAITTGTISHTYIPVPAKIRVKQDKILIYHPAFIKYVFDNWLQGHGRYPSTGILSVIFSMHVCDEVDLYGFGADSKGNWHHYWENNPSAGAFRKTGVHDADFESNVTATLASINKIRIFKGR
Experimental: The YT-2 strain and the YT-3 strain were inoculated in 5 ml of YPAD+KCl medium (2% polypeptone, 1% yeast extract, 2% glucose, adenine (40 mg/l), 0.3 M potassium chloride), and preculture was carried out at 30° C. overnight. Subsequently, 1 ml of a preculture solution was inoculated in 150 ml of YPAD+KCl medium, and culture was carried out at 30° C. for 48 hours. The strains were recovered, resuspended in 100 ml of BMMY+2% casamino acid medium (1% yeast extract, 2% polypeptone, 1.34% Yeast Nitrogen Base without amino acids (Difco), 0.1 M KPi (pH 6.0), 2% casamino acid, 1% methanol), and cultured at 20° C. for 96 hours. Methanol was added to a concentration of 0.5% every 12 hours. After the completion of culture, the culture product was subjected to centrifugation to remove yeast cells, and the resulting solution was designated as a crude enzyme solution.
Enzyme activity was assayed in the following manner. A crude enzyme solution (2 μl) was added to 18 μl of a reaction solution (0.1 M Tris-HCl (pH 7.5), 1 mM MnCl2, 5 mM CMP-NeuAc, 50 μM core 1-pNP), and the reaction was initiated. After the reaction was carried out at 37° C. for 30 minutes, the reaction was terminated via boiling, and HPLC analysis was carried out. A Cosmosil 5C18-ARII column (4.6×250 mm, Nacalai Tesque, Inc.) was used, and a mixture of 0.2 M triethylamine-acetic acid (pH 7.0, solution A) and acetonitrile (solution B) (solution A:solution B=9:1) was used as a mobile phase. The column was equilibrated, the sample was injected therein, and elution was carried out 20 minutes thereafter. Detection was carried out using a UV detector (detection wavelength: 300 nm). A core1-pNP substrate was eluted 14.5 minutes later, and a reaction product, sialylcore1-pNP, was eluted 17 minutes later. The reaction product was quantified based on the peak area, and the result was designated as activity (U). The unit “1 U” was defined as the amount of an enzyme that is necessary to produce 1 μmol of the reaction product per minute.
Western blot analysis was then carried out. The culture supernatants in amounts equivalent to “10 μU” of the YT-2 strain and the YT-3 strain were subjected to treatment with EndoHf (NEB, P0703S) in accordance with the protocol, applied, and then subjected to SDS-PAGE. After electrophoresis, the product was transferred to a PVDF membrane, and Western blotting was carried out in accordance with a conventional technique. A mouse anti-FLAG M2 antibody (Sigma, F1804) was used as a primary antibody and an anti-mouse IgG antibody-alkaline phosphatase composite was used as a secondary antibody. Detection was carried out using CDP-Star and an image analyzer, LAS1000 (Fujifilm Corporation). Further, signals were quantified using Image Gauge (Fujifilm Corporation).
The expression vector for various chaperone gene combinations derived from O. minuta prepared in Example 4 was introduced into the YT-1 strain of Example 17. In the same manner as in Example 16, plasmids were cleaved with NotI to transform the YT-1 strain. After transformation, the resultant was applied on SD-Ura medium (2% glucose, 0.17% Yeast Nitrogen Base without amino acids (Difco), nucleic acid bases except for uracil, and amino acid mixture (20 to 400 mg/l)) and culture was carried out at 30° C. for 2 days. Whether or not the expression vector was incorporated into a chromosome was confirmed via colony PCR described in Example 5, an expressed strain having a coexpression vector (onaP09407) carrying two copies of the OmPDI1 expression cassette was designated as the YT-4 strain, an expressed strain having a coexpression vector (onaP09707) for OmPDI1 and OmKar2 was designated as the YT-5 strain, an expressed strain having a coexpression vector (onaP09507) for OmPDI1 and OmERO1 was designated as the YT-6 strain, and an expressed strain having a coexpression vector (onaP09607) for OmPDI1 and OmHSP104 was designated as the YT-7 strain. […]

[5] = biological target: T1, human alpha-2,3-sialic acid transferase (ST3GalI); assay: as above; type: biochemical; settings: Table 2, 30 μl culture supernatant, Western blot signal intensity, with the elapse of time

## 5-[[3,4-(1-phenylmethoxy)phenyl]methylene]-4-oxo-2-thioxo-3-thiazolidineacetic acid [rhodanine-3-acetic acid derivative 1c]
[1]; 1c final concentration 10 μM, versus control culture
  increase of amount of antibody secretory production when addition of an O-sugar chain was suppressed: approximately 2.5 times
[1]; O-sugar chain addition suppressed (1c final concentration 10 μM), without 1c 3.9 ng/ml, FIG. 14
  amount of antibody secretory production: 10 ng/mL
[2]
  improvement of the amount of production: approximately 13%
[3]; addition of PMT inhibitors to culture, FIG. 6
  high-molecular-weight antibody heavy chain (Western blot, reducing electrophoresis): decreased
[3]; addition of PMT inhibitors twice (100 μl medium containing 20 μM 1c on day 2 and day 3)
  amount of antibody production: approximately 1.9 mg/l
[3]; single addition of PMT inhibitors (100 μl medium containing 20 μM 1c on day 3)
  amount of antibody production: approximately 1.7 mg/l

## Ona01206: secreted human lysozyme sample from strain into which no chaperone combination was introduced
M. lysodeikticus
  Bacteriolytic activity: 23.0 unit/ml and 22.3 unit/ml and 22.0 unit/ml
  Specific activity: 0.45 unit/mg and 0.42 unit/mg and 0.43 unit/mg

## Ona44607: secreted human lysozyme sample from strain constitutively expressing OmPDI1, OmERO1, and OmKar2
M. lysodeikticus
  Bacteriolytic activity: 33.3 unit/ml and 34.0 unit/ml
  Specific activity: 0.67 unit/mg and 0.65 unit/mg

## Ona68908: secreted human lysozyme sample from strain expressing synthetic hPDI, synthetic hERO1-Lβ, and synthetic hGRP78
M. lysodeikticus
  Bacteriolytic activity: 36.0 unit/ml and 29.3 unit/ml and 33.3 unit/ml
  Specific activity: 0.68 unit/mg and 0.61 unit/mg and 0.65 unit/mg

B1: YT-3: ST3GalI crude enzyme solution from O. minuta strain into which OmPDI1 (onaP03606) had been introduced (protein, UniProt Q11201 1-340, looked up)
CMP-N-acetylneuraminate-beta-g …: MVTLRKRTLKVLTFLVLFIFLTSFFLNYSHTMVATTWFPKQMVLELSENLKRLIKHRPCTCTHCIGQRKLSAWFDERFNQTMQPLLTAQNALLEDDTYRWWLRLQREKKPNNLNDTIKELFRVVPGNVDPMLEKRSVGCRRCAVVGNSGNLRESSYGPEIDSHDFVLRMNKAPTAGFEADVGTKTTHHLVYPESFRELGDNVSMILVPFKTIDLEWVVSAITTGTISHTYIPVPAKIRVKQDKILIYHPAFIKYVFDNWLQGHGRYPSTGILSVIFSMHVCDEVDLYGFGADSKGNWHHYWENNPSAGAFRKTGVHDADFESNVTATLASINKIRIFKGR
[4]; 96 hours later, FIG. 15
  difference in the expression levels (enzyme activity) compared with YT-2: approximately 3.4 times
[4]
  Specific activity: 3.36 pU/AU
[4]; YT-3 versus YT-2
  elevation of the specific activity by introduction of OmPDI1: approximately 1.6 times

B2: YT-2: ST3GalI crude enzyme solution from O. minuta strain with control plasmid pOMexGP1U, no OmPDI1 (protein, UniProt Q11201 1-340, looked up)
CMP-N-acetylneuraminate-beta-g …: B1 CMP-N-acetylneuraminate-beta-g …
[4]
  Specific activity: 2.13 pU/AU

B3: YT-5: ST3GalI culture supernatant from strain coexpressing OmPDI1 and OmKar2 (protein, UniProt Q11201 1-340, looked up)
CMP-N-acetylneuraminate-beta-g …: B1 CMP-N-acetylneuraminate-beta-g …
[4]; listed as YT-5-1
  Activity: 1.29 mU/ml
[4]; listed as YT-5-2
  Activity: 2.07 mU/ml
[4]; listed as YT-5-3
  Activity: 1.86 mU/ml
[4]; listed as YT-5-4
  Activity: 2.29 mU/ml
[5]; listed as YT-5-1
  Specific activity: 10.7 pU/AU
[5]; listed as YT-5-2
  Specific activity: 15.8 pU/AU
[5]; listed as YT-5-3
  Specific activity: 12.3 pU/AU
[5]; listed as YT-5-4
  Specific activity: 14.9 pU/AU

B4: YT-7: ST3GalI culture supernatant from strain coexpressing OmPDI1 and OmHSP104 (protein, UniProt Q11201 1-340, looked up)
CMP-N-acetylneuraminate-beta-g …: B1 CMP-N-acetylneuraminate-beta-g …
[4]; listed as YT-7-1
  Activity: 1.28 mU/ml
[4]; listed as YT-7-2
  Activity: 2.98 mU/ml
[4]; listed as YT-7-3
  Activity: 3.45 mU/ml
[4]; listed as YT-7-4
  Activity: 3.65 mU/ml
[5]; listed as YT-7-1
  Specific activity: 11.4 pU/AU
[5]; listed as YT-7-2
  Specific activity: 27.9 pU/AU
[5]; listed as YT-7-3
  Specific activity: 42.5 pU/AU
[5]; listed as YT-7-4
  Specific activity: 57.3 pU/AU
